Laboratory results from publication doi:10.1101/2022.09.11.507496.

Biological target: VSV:H2-K^b (mouse | not stated) (UniProt P03521)
Experiment: micropipette adhesion frequency

Sequence of UniProt P03521 (P03521 whole entry, looked up): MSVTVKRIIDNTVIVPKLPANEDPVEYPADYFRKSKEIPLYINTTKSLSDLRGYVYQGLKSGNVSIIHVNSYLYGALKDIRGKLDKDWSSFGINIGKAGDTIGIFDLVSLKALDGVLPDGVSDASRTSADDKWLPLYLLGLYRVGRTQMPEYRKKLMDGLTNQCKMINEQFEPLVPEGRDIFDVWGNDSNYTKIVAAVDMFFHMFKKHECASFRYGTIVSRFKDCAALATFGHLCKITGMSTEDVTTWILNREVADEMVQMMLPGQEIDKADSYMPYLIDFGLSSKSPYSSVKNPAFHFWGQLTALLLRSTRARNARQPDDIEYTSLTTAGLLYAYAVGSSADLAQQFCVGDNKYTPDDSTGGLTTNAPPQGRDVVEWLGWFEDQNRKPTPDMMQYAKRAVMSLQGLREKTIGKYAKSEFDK

CD8 on CD8+ T cells of OT-I mice (from UniProt P01731;P10300) (receptor)
fold smaller 2D affinity than TCR–pMHC: 500 fold
